Three molecules from PMC12276895 (2025) can be followed below.

The target of this experiment is prefusion biotinylated MERS-CoV EMC/2012 S ectodomain trimer (MERS-CoV EMC/2012, UniProt K9N5Q8 18-1296). As to the kind of experiment: SPR. In general terms: SPR reads the build-up and loss of mass on a sensor chip optically.

B1: nTrimer2 homotrimeric miniprotein (designed binder)
chain: SPVKRFVREVLEEAEEAYEKGDRRQFEELLWLAEWAARDANDEELEEEIREFEKEVKGSGKRIDEIESKLKHLEEFTTHLIKLMETMLELLKLVSDGKSDSEEYKELLEKAEEYLKQATEAAKKI
In turn, B1 came in with a Kd of 0.027 nM.

B2: nTrimer1 homotrimeric miniprotein (cb3-GSG-Trimer1) (designed binder)
chain: SPVKRFVREVLEEAEEAYEKGDRRQFEELLWLAEWAARDANDEELEEEIREFEKEVKGSGSEALEELEKALRELKKSTDELERSTEELEKNPSEDALVENNRLIVENNKIIVEVLRIIAKVLK
In turn, B2 displayed a Kd of 0.021 nM.

B3: nTrimer5 homotrimeric miniprotein (designed binder)
chain: SPVKRFVREVLEEAEEAYEKGDRRQFEELLWLAEWAARDANDEELEEEIREFEKEVKGSGMTRLEQLLAQGVDPFEVLREKIEKLKEIWKKYEEAKGEEKERYRDELLKLMMEVLELMVELLSRR
Molecule B3 gave a dissociation constant Kd of 0.032 nM.

As usually defined, the Kd is the constant that tells how readily two partners part at equilibrium. A lower Kd goes with tighter binding.
